In publication PMC13022674, “Thymine DNA glycosylase binds to R-loops and excises 5-formyl and 5-carboxyl cytosine from DNA/RNA hybrids” one finds Kd data, which are given here for ten molecules.

The target of data set [1] is T1, TDG (thymine DNA glycosylase) (human, UniProt Q13569 1-410). Briefly: EMSA; Hill 2.9; EMSA: 5 nM substrate, 100 mM NaCl, 2.5 mM MgCl2, 10 mM Tris-HCl pH 7.5, 5% glycerol, 30 min 30 C, 0.6% agarose 1x TBE 4 C; NMR: 0.1 M NaCl, 0.03 mM TCEP, 15 mM. As to conditions: protein: recombinant; tags: His tag (pET28a, TALON purified); label: 5'-FAM strand 1; 5' overhang 1 nt (strand 1).

The target in data set [2] is T1, TDG (thymine DNA glycosylase). Briefly: EMSA; EMSA: 5 nM substrate, 100 mM NaCl, 2.5 mM MgCl2, 10 mM Tris-HCl pH 7.5, 5% glycerol, 30 min 30 C, 0.6% agarose 1x TBE 4 C; NMR: 0.1 M NaCl, 0.03 mM TCEP, 15 mM. As to conditions: protein: recombinant; tags: His tag (pET28a, TALON purified); blunt. On the technique in general: In EMSA bound probe runs differently from free probe, usually more slowly.

Data set [3] shares this target. Briefly: EMSA; Hill 1.8; EMSA: 5 nM substrate, 100 mM NaCl, 2.5 mM MgCl2, 10 mM Tris-HCl pH 7.5, 5% glycerol, 30 min 30 C, 0.6% agarose 1x TBE 4 C; NMR: 0.1 M NaCl, 0.03 mM TCEP, 15 mM. As to conditions: protein: recombinant; tags: His tag (pET28a, TALON purified); label: 5'-FAM strand 1; blunt; G-UF pair intended.
The target is the same in data set [4]. Briefly: EMSA; Hill 2.7; EMSA: 5 nM substrate, 100 mM NaCl, 2.5 mM MgCl2, 10 mM Tris-HCl pH 7.5, 5% glycerol, 30 min 30 C, 0.6% agarose 1x TBE 4 C; NMR: 0.1 M NaCl, 0.03 mM TCEP, 15 mM. As to conditions: protein: recombinant; tags: His tag (pET28a, TALON purified); label: 5'-FAM strand 1; blunt.
For data set [5] the target is unchanged. As to the kind of experiment: EMSA; Hill 3.0; EMSA: 5 nM substrate, 100 mM NaCl, 2.5 mM MgCl2, 10 mM Tris-HCl pH 7.5, 5% glycerol, 30 min 30 C, 0.6% agarose 1x TBE 4 C; NMR: 0.1 M NaCl, 0.03 mM TCEP, 15 mM. As to conditions: protein: recombinant; tags: His tag (pET28a, TALON purified); label: 5'-FAM strand 1; blunt.
Data set [6] shares this target. As to the kind of experiment: EMSA; Hill 2.3; EMSA: 5 nM substrate, 100 mM NaCl, 2.5 mM MgCl2, 10 mM Tris-HCl pH 7.5, 5% glycerol, 30 min 30 C, 0.6% agarose 1x TBE 4 C; NMR: 0.1 M NaCl, 0.03 mM TCEP, 15 mM. As to conditions: protein: recombinant; tags: His tag (pET28a, TALON purified); label: 5'-FAM strand 1; blunt.
Data set [7] shares this target. Briefly: EMSA; Hill 4.5; EMSA: 5 nM substrate, 100 mM NaCl, 2.5 mM MgCl2, 10 mM Tris-HCl pH 7.5, 5% glycerol, 30 min 30 C, 0.6% agarose 1x TBE 4 C; NMR: 0.1 M NaCl, 0.03 mM TCEP, 15 mM. As to conditions: protein: recombinant; tags: His tag (pET28a, TALON purified); label: 5'-FAM strand 1; blunt.
Data set [8] shares this target. Briefly: EMSA; Hill 2.0; EMSA: 5 nM substrate, 100 mM NaCl, 2.5 mM MgCl2, 10 mM Tris-HCl pH 7.5, 5% glycerol, 30 min 30 C, 0.6% agarose 1x TBE 4 C; NMR: 0.1 M NaCl, 0.03 mM TCEP, 15 mM. As to conditions: protein: recombinant; tags: His tag (pET28a, TALON purified); label: 5'-FAM strand 1; blunt.
For data set [9] the target is unchanged. Briefly: EMSA; Hill 4.9; EMSA: 5 nM substrate, 100 mM NaCl, 2.5 mM MgCl2, 10 mM Tris-HCl pH 7.5, 5% glycerol, 30 min 30 C, 0.6% agarose 1x TBE 4 C; NMR: 0.1 M NaCl, 0.03 mM TCEP, 15 mM. As to conditions: protein: recombinant; tags: His tag (pET28a, TALON purified); label: 5'-FAM strand 1; blunt.
The target is the same in data set [10]. As to the kind of experiment: EMSA; Hill 6.1; EMSA: 5 nM substrate, 100 mM NaCl, 2.5 mM MgCl2, 10 mM Tris-HCl pH 7.5, 5% glycerol, 30 min 30 C, 0.6% agarose 1x TBE 4 C; NMR: 0.1 M NaCl, 0.03 mM TCEP, 15 mM. As to conditions: protein: recombinant; tags: His tag (pET28a, TALON purified); label: 5'-FAM strand 1; 5' overhang 1 nt (strand 1).

Numbering of substitutions follows the chain as printed.

T1 sequence (Q13569 whole entry): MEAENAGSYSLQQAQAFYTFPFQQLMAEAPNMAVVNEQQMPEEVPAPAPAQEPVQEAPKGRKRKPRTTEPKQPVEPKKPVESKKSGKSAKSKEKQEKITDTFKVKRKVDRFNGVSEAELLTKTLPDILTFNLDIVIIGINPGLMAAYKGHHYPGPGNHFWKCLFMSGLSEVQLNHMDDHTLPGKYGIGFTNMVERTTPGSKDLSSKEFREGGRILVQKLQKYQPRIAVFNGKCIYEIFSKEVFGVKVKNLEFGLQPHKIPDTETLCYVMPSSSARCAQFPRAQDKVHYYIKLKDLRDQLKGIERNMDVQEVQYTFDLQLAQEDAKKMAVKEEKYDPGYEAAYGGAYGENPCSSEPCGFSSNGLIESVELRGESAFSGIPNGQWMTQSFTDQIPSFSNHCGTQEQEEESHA

B1: D2-C (dsDNA)
DNA 1: TGTGTCACCACTGCTCACGTACAGAGCTG
DNA 2: CAGCTCTGTACGTGAGCAGTGGTGACAC
As usually defined, the Kd is a measure of binding affinity in units of concentration. Regarding B1, the dissociation constant Kd in [1] is 47 nM.

B2: TCF21-DNA (unmodified) (dsDNA)
DNA 1: TCCTAGTGTCCACCAAATTCCTCAGCGCTCGCTCACCCTCCTCTACGGCCACGACTCTGGGAGTG
DNA 2: CACTCCCAGAGTCGTGGCCGTAGAGGAGGGTGAGCGAGCGCTGAGGAATTTGGTGGACACTAGGA
Consider B2, for which, in data set [2], the Kd came out at 49 nM.

B3: D1-UF (dsDNA)
DNA 1: TGAGGATGTATATATCTGAUGCGCCGGTGGAGC
DNA 2: GCTCCACCGGCGCGTACGATATATACATCCTCA
modifications: 2'-deoxy-2'-fluoroarabinouridine (UF) at strand 1 pos 20
For the molecule B3, the Kd in data set [3] came to 32 nM.

B4: H1-5caC (DNA:RNA)
DNA: B3 DNA 1 with U20C
RNA: GCUCCACCGGCGCGUACGAUAUAUACAUCCUCA
modifications: 5-carboxycytosine at strand 1 pos 20; strand 2 RNA
As for B4, in [4], the dissociation constant (Kd) turned out to be 31 nM.

B5: D1-5fC (dsDNA)
DNA 1: B3 DNA 1 with U20C
DNA 2: B3 DNA 2
modifications: 5-formylcytosine at strand 1 pos 20
As for B5, the Kd in data set [5] amounted to 56 nM.

B6: D1-C (dsDNA)
DNA 1: B3 DNA 1 with U20C
DNA 2: B3 DNA 2
For B6, the Kd in data set [6] was 43 nM.

B7: H1-C (DNA:RNA)
DNA: B3 DNA 1 with U20C
RNA: B4 RNA
modifications: strand 2 RNA
Consider B7, for which the Kd in data set [7] was found to be 67 nM.

B8: D1-5caC (dsDNA)
DNA 1: B3 DNA 1 with U20C
DNA 2: B3 DNA 2
modifications: 5-carboxycytosine at strand 1 pos 20
With B8, the Kd in data set [8] came out at 25 nM.

B9: H1-5fC (DNA:RNA)
DNA: B3 DNA 1 with U20C
RNA: B4 RNA
modifications: 5-formylcytosine at strand 1 pos 20; strand 2 RNA
Consider B9, for which, in data set [9], the Kd was determined as 60 nM.

B10: H2-C (DNA:RNA)
DNA: TGTGTCACCACTGCTCACGTACAGAGCTG
RNA: CAGCUCUGUACGUGAGCAGUGGUGACAC
modifications: strand 2 RNA
On to B10, for which the dissociation constant (Kd) in data set [10] amounted to 57 nM.
